For 1 substance, Kd results are on record in patent US20140371080.

Data set [1] deals with EGFP (Aequorea victoria (engineered)?). To be noted: CITED Shui et al. 2012; p76 states 5 and 15 nM by ITC and EMSA respectively; cited from earlier work. In general terms: In EMSA bound probe runs differently from free probe, usually more slowly.
Data set [2] deals with EGFP-mOrange fusion (Aequorea victoria / Discosoma sp. (engineered)?) (UniProt P42212). As to conditions: fluorescence imaging of halted RNA clusters on Illumina GAIIx; 1xPBS, 5 mM MgCl2, 0.01% Tween-20, room temp; published 5.1 nM.

For GFP aptamer (canonical, GFPapt), the Kd in data set [1] was 5.1 nM; in data set [2], 6 nM.

A word on the Kd: it is the equilibrium constant for the complex coming apart.
